The Kd is the free concentration of one partner at which half of the binding sites on the other are occupied at equilibrium, for simple one-to-one binding. Low readings indicate tighter binding, high ones weaker binding. One may read the koff as the rate constant with which the complex falls apart. Usually kon stands for the second-order rate constant of association. Read a high kon as faster complex formation.

This passage reports Kd, koff and kon results from patent US20230227559A1.

The target in the assay is His-tagged ectodomains of hFcγRIIIA variant V158 (human) (UniProt P08637). In words: SPR (ProteON), His-tagged hFcγRIIIA V158 ectodomains on chip, mAb injected.
Chain of His-tagged ectodomains of hFcγRIIIA variant V158 (human) (P08637 other isoform, or with tags, fused parts or gaps mutant): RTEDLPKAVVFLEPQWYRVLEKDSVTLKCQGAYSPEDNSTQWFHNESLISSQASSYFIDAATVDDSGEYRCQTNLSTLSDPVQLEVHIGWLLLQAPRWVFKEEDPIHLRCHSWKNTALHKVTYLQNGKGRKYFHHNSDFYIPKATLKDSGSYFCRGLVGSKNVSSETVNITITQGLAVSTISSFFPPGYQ

The substance Chimeric 3G8 hIgG1 (antibody) showed a Kd of 2.1 nM, a koff of 0.00021 s⁻¹ and a kon of 300000 M⁻¹ s⁻¹.

In turn, “Chimeric 3G8 hIgG1 N297A format (antibody)” showed a Kd of 2.88 nM, a koff of 0.0003 s⁻¹ and a kon of 110000 M⁻¹ s⁻¹.
